This is an account of results in US20050064507A1, “Determining kinase specificity” (priority 2003, published 2005).

Where only a bound is given, the exact number is not on record here.

This experiment has as its target T1, PKC-delta (Homo sapiens, UniProt Q05655).
T1 construct: purchased Calbiochem
Briefly: In vitro kinase assay: peptide phosphorylation by PKC-delta. The settings on record: for Measured in vitro phosphorylation by PKC-delta: peptide concentration of 10 nM, percentage of phosphorylation of the best validating peptide substrate; for phosphorylation in the in vitro validating assay: PKC-delta. Format: biochemical. The source says: One approach to validating a substrate identification method can involve, for example, comparison of substrate sites predicted by the method with in vitro phosphorylation results obtained using the selected kinase and peptides of known sequences. Such a systematic validation has been performed for the methods described herein. For example, a panel of seventy five peptides was synthesized, the phosphorylation observed for each peptide was experimentally measured, the amount of phosphorylation was quantified, the phosphorylation results for each peptide were normalized to the phosphorylation observed with the best substrate tested and these amounts were compared with predictions made according to the invention and according to the procedures provided by others. These peptides are referred to herein as proteomic peptides because their sequences are chosen from proteins in the human proteome; unlike the test sets employed herein, these peptides include no degenerate positions
Table 2 compares the present predictions with actual measurements of phosphorylation on validating peptides. The method of synthesis of the validating peptides was as described elsewhere in the application, and each included an N-terminal linker sequence of biotinylated-Lys-dansylated-Lys-Pro-Pro-Gly (SEQ ID NO:231). The length of the remaining “core” of the validating peptides ranged from 12-21 residues with one to five S/T residues. In vitro phosphorylation of these validating peptides was measured in the manner described herein. […] In vitro phosphorylation results for the validating peptides were expressed as normalized values, namely as a percentage of phosphorylation of the best validating peptide substrate in the group.
The conditions of the kinase assay and the amount of active kinase used varied with the kinase and with the accuracy needed. For a typical experiment, 5-20 ng of kinase was used per well and each peptide pool was assayed in duplicate wells. Note that the absolute amount of kinase used was not usually a critical parameter, because the desired information related to specificity of the kinase not its absolute activity, and robustness of the assay depends on comparisons of the same amount of kinase on different peptides. The combination of kinase concentration and assay duration was modified to assure that the stoichiometry of peptide phosphorylation never exceeded 5%. The choice of kinase buffer depended on the kinase being analyzed. For studies of PKC, 100 mM HEPES, 0.05% Triton-X100, 1 mM CaCl2, 20 mM MgCl2, 0.2 mg/ml phosphatidyl serine (Avanti Polar Lipids), PMA 100 ng/ml was typically used. The lipid stock was prepared by transferring 3 mg phosphatidyl serine into iced mixture of 450 μl water plus 50 μl of 10% Triton-X100, sonicating 10 times on ice for 1 sec each.
The kinase reaction mixture was assembled by sequential addition to a tube held on ice of: 5 μl peptide (100 μM for final concentration of 10 μM), 15 μl of kinase (typically 5 ng/well, in appropriate kinase buffer), 30 μl of ATP (1 uCi/well of ^32P-gamma ATP in a stock of 167 μM cold ATP in the kinase buffer; for final concentration for 100 μM ATP). The mixture was rapidly warmed to desired reaction temperature (30° C. for PKC) and incubated for the desired duration (usually 10 minutes). The kinase assay was terminated by transfer to 4° C. water batch, and rapid addition of an equal volume (50 μl) of stop solution [0.1M ATP+0.1M EDTA in water, pH 8].
The peptides were then captured from the reaction mixture by transfer to a Reacti-Bind Streptavidin High Binding Capacity Coated Plates (HBC) (Pierce Biotechnology) as follows. The HBC plates were pre-rinsed three times with PBS/Tween PBS/Tween20 0.05% (PBS/Tween). […]

T1 sequence (Q05655 whole entry): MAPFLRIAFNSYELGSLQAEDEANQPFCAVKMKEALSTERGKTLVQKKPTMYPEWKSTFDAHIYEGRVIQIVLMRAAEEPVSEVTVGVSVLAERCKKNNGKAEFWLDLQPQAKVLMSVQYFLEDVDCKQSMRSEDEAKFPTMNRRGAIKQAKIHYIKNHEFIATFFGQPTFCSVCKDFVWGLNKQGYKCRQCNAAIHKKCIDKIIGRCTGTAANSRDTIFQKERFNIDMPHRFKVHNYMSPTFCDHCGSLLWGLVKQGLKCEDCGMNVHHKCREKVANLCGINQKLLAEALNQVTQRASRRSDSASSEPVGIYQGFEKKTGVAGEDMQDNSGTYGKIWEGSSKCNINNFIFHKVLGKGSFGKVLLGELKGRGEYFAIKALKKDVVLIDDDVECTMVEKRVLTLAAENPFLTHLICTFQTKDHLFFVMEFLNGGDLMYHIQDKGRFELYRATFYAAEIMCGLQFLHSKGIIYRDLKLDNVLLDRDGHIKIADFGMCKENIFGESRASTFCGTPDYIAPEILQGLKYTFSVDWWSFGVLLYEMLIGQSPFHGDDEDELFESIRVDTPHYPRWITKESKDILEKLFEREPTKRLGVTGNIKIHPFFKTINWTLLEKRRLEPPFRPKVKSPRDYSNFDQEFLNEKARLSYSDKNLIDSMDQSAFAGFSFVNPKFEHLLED

With 1 (HVRRRRGTFKRSKLRARD) [compound 1], the “Measured in vitro phosphorylation by PKC-delta” value (from here on “Measured … by PKC-delta”) was 100%.

For 2 (KKKKRASFKRKSSKKG) [compound 2], the “Measured … by PKC-delta” value came out at 76%.

With 3 (NRKKKRTSFKRKA) [compound 3], the “Measured … by PKC-delta” value was 66%.

Consider 4 (KFARKSTRRSIRLPE) [compound 4], for which the “phosphorylation in the in vitro validating assay” value is recorded as “highly phosphorylated” and the “Measured … by PKC-delta” value came to 52%.

As for 5 (RQRKRKLSFRRRTDKD) [compound 5], the “Measured … by PKC-delta” value is recorded as 42%.

In the case of 6 (PRLIRRGSKKRPAR) [compound 6], the “Measured … by PKC-delta” value is on record as 40%.

Take 7 (RKIPKRPGSVHRTPSRQ) [compound 7]: the “phosphorylation in the in vitro validating assay” value is “highly phosphorylated” and the “Measured … by PKC-delta” value amounted to 38%.

As to 8 (AARKKRISVKKKQEQ) [compound 8], the “Measured … by PKC-delta” value is 35%.

For the substance 9 (QKKSRLRRRASQLKI) [compound 9], the “phosphorylation in the in vitro validating assay” value is listed as “highly phosphorylated” and the “Measured … by PKC-delta” value was 34%.

Consider 10 (AQIVKRASLKRGKQ) [compound 10], for which the “Measured … by PKC-delta” value is 32%.

As to 11 (KKKFRTPSFLKKSKK) [compound 11], the “phosphorylation in the in vitro validating assay” value is on record as “highly phosphorylated” and the “Measured … by PKC-delta” value is reported as 25%.

As to 12 (KKKKKRFSFKKSFKL) [compound 12], the “Measured … by PKC-delta” value is 24%.

13 (WKGKRRSKARKKRK) [compound 13]: the “Measured … by PKC-delta” value is recorded as 22%.

Consider 14 (EYLERRASRRRAV) [compound 14], for which the “Measured … by PKC-delta” value stood at 20%.

With 15 (RGFLRSASLGRRASFHLE) [compound 15], the “Measured … by PKC-delta” value came to 18%.

Turning to 16 (DGQKRKKSLRKKLD) [compound 16], the “Measured … by PKC-delta” value was found to be 17%.

17 (AGWRKKTSFRKPKED) [compound 17]: the “Measured … by PKC-delta” value was 17%.

On to 18 (KKRFSFKKSFKLSGFSFKKN) [compound 18], for which the “Measured … by PKC-delta” value is listed as 16%.

For the substance 19 (AGSFKRNSIKKIV) [compound 19], the “Measured … by PKC-delta” value came out at 14%.

20 (GAPPRRSSIRNAH) [compound 20]: the “Measured … by PKC-delta” value is 13%.

Turning to 21 (KLAVGRHSFSRRSGV) [compound 21], the “Measured … by PKC-delta” value worked out at 12%.

For the substance 22 (LLKKRDSFRTPRDSKLE) [compound 22], the “Measured … by PKC-delta” value stood at 12%.

As for 23 (QKRHARVTVKYDRRE) [compound 23], the “Measured … by PKC-delta” value is given as 10%.

Regarding 24 (EKIKRSSLKKVDSLKK) [compound 24], the “Measured … by PKC-delta” value is listed as 10%.

For 25 (EILSRRPSYRKILND) [compound 25], the “Measured … by PKC-delta” value came out at 9%.

For the substance 26 (ALRRPSLRREADD) [compound 26], the “Measured … by PKC-delta” value stood at 9%.

Turning to 27 (KKRKKKSSKSLAHA) [compound 27], the “Measured … by PKC-delta” value is 8%.

Turning to 28 (KRPGKKGSNKRPGKR) [compound 28], the “Measured … by PKC-delta” value was found to be 8%.

On to 29 (RKNDRKKRYTVVGNP) [compound 29], for which the “Measured … by PKC-delta” value amounted to 8%.

On to 30 (KEVVRTDSLKGRRGR) [compound 30], for which the “Measured … by PKC-delta” value was 7%.

Consider 31 (RKKRKKKSSKSLAHAGVALA) [compound 31], for which the “Measured … by PKC-delta” value was over 5%.

As for 32 (KATTKKRTLRKNDRK) [compound 32], the “Measured … by PKC-delta” value is reported as over 5%.

As to 34 (EGGDRRASGRRK) [compound 34], the “Measured … by PKC-delta” value turned out to be 5%.

In the case of 35 (GLLDRKGSWKKLDDM) [compound 35], the “Measured … by PKC-delta” value is 4%.

Consider 36 (GENVLKKSMKSRVKG) [compound 36], for which the “Measured … by PKC-delta” value worked out at 4%.

For 37 (AYIERMNSIHRDLRA) [compound 37], the “Measured … by PKC-delta” value was 3%.

Regarding 38 (NYLRRRLSDSNFMAN) [compound 38], the “Measured … by PKC-delta” value stood at 3%.

With 39 (LLGSGKVTDRKAL) [compound 39], the “Measured … by PKC-delta” value worked out at 3%.

For the substance 40 (NMEAKKLSKDRMKKY) [compound 40], the “Measured … by PKC-delta” value stood at 3%.

Take 41 (FVHQASFKFGQGD) [compound 41]: the “Measured … by PKC-delta” value is listed as 3%.

Consider 42 (QPEGLRSLKKPDRKKR) [compound 42], for which the “Measured … by PKC-delta” value is reported as 3%.

Take 43 (AWVTVHEKKSSRKSEYL) [compound 43]: the “Measured … by PKC-delta” value amounted to 3%.

As to 44 (VLAKKGTSKTPVPE) [compound 44], the “Measured … by PKC-delta” value is given as 2%.

Consider 45 (VFREHQRSGSYHVRE) [compound 45], for which the “Measured … by PKC-delta” value amounted to 2%.

As to 46 (GQAWGRQSPRRLED) [compound 46], the “Measured … by PKC-delta” value is listed as 2%.

On to 47 (ARIIGEKSFRRSVVG) [compound 47], for which the “Measured … by PKC-delta” value was 2%.

Regarding 48 (AVNSRRRAGQKKK) [compound 48], the “Measured … by PKC-delta” value was 2%.

As for 49 (VQQLLRSSNRRLEQL) [compound 49], the “Measured … by PKC-delta” value amounted to 2%.

Take 50 (ENLRRVATDRRHLGH) [compound 50]: the “Measured … by PKC-delta” value stood at 2%.

51 (DLLGKKVSTKTLSEDD) [compound 51]: the “Measured … by PKC-delta” value was found to be 2%.

On to 52 (HKHSPEKRGSERKEG) [compound 52], for which the “Measured … by PKC-delta” value came out at 2%.

With 53 (AKNLKTLQKRDSFIG) [compound 53], the “Measured … by PKC-delta” value was found to be 2%.

In the case of 54 (ENLRKVTTDKKSLAY) [compound 54], the “Measured … by PKC-delta” value is 2%.

For the substance 55 (DDMEHKTLKITDFG) [compound 55], the “Measured … by PKC-delta” value is given as 2%.

For the substance 56 (EARLGAASLKFGARD) [compound 56], the “Measured … by PKC-delta” value is 2%.

For the substance 57 (KNVVKLLSSRRTQDR) [compound 57], the “Measured … by PKC-delta” value was 2%.

As for 58 (RVKLGTLRRPEGP) [compound 58], the “Measured … by PKC-delta” value is 1%.

Regarding 59 (PVNKRSKYTMMK) [compound 59], the “Measured … by PKC-delta” value came to 1%.

On to 60 (LRRKHLGTLNFGGIR) [compound 60], for which the “phosphorylation in the in vitro validating assay” value was “poorly phosphorylated” and the “Measured … by PKC-delta” value amounted to 1%.

On to 61 (VDNILKKSNKKLEEL) [compound 61], for which the “Measured … by PKC-delta” value is reported as 1%.

In the case of 62 (AVRDMRQTVAVGVIK) [compound 62], the “Measured … by PKC-delta” value was determined as 1%.

Consider 63 (QRQERIFSKRRGQDF) [compound 63], for which the “Measured … by PKC-delta” value came to 1%.

As to 64 (ALRAPKPTLRYFTTERF) [compound 64], the “phosphorylation in the in vitro validating assay” value is “poorly phosphorylated” and the “Measured … by PKC-delta” value stood at 1%.

Consider 65 (IKVTHKATGKVMVMK) [compound 65], for which the “Measured … by PKC-delta” value is given as 1%.

Consider 66 (GFAKKIGSGQKTWTF) [compound 66], for which the “phosphorylation in the in vitro validating assay” value is listed as “poorly phosphorylated” and the “Measured … by PKC-delta” value is on record as 1%.

As for 67 (AINSRETMFHKERFK) [compound 67], the “Measured … by PKC-delta” value is 1%.

For 68 (RGEGHKPSIAHRDFK) [compound 68], the “Measured … by PKC-delta” value was determined as 1%.

Regarding 69 (LALTARESSVRSGGAG) [compound 69], the “phosphorylation in the in vitro validating assay” value is on record as “poorly phosphorylated” and the “Measured … by PKC-delta” value came to 1%.
